Measured values: patent publication US20200165340A1 (XIANGTAN TENGHUA BIOSCIENCE, published 2020)

Target: T1, human PD-L1 expressed at the cell membrane (human, UniProt Q9NZQ7 19-290)
T1 construct: whole, on cells; also called programmed death-ligand 1; cellular PD-L1 protein
Test: flow cytometry (FACS) titration on 293T cells stably transfected with human PD-L1, anti-mouse IgG PE detection

T1 sequence (Q9NZQ7 19-290): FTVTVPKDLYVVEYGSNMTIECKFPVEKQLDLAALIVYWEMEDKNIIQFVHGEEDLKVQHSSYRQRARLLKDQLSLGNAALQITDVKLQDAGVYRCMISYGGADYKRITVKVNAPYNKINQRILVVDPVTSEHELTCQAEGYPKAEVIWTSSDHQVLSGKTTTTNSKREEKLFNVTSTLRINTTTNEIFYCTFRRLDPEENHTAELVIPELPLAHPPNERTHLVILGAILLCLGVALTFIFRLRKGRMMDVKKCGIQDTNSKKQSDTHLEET

B1: anti-PD-L1 mouse monoclonal antibody Q106 (antibody, V domains shown)
VH: DVQLQESGPGLVKPSQSLSLTCSVTGYSITSDYAWNWIRQFPGDTLEWMGYINYSGSSTYNPSLISRLSITRDTSKNQFFLQLNSVTSEDTATYYCARGPDWDWYFDYWGQGTTLTVSS
VL: DIVLTQSPATLSVTPGDSVSLSCRASQSISNNLHWYQQKSHESPRLLIKYASQSISGIPSRFSGSGSGTDFTLSINGVETEDFGMYFCQQTNSWPTFGGGTKLEIK
notes: also called PD-L1 antibody Q106
B1 was tested, and the EC50 was 0.3 nM.
